Assay results published in patent US20250263754.

T1: HRBP (1-81), amino acids 1 to 81 of the Nogo-B receptor (NgBR) family protein HRBP from Hevea brasiliensis
T1 chain: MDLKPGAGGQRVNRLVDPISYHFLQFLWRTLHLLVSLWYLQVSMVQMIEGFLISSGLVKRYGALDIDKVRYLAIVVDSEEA

B1: LDAP1-linker-HRT1 fusion protein (protein)
chain: MAEADAKLQNDTVQEDEVTTLKYLEFVQIAAVHAVVIVSSIYDFAKDNSGPLKPGVQTVEGTVKTVMSPVYEKIQDIPLELLKFADRKVDGFVQEVDRHVPVLVKQASSQAFSAAHRAPEVARSIKSELNRVGVVDTATEMTKAAYATLEPTAKDLYIRYEPVAEHYAVSAWRSLNRLPLFSEVAHIVVPTAAYWTDKYNKGVRYMEVKGFGVASYMPLVPTERIAKVFGEREEEIVLEMSPMTTSEVVNTGNSADGGGGSGGSGGSGGGSTQGGFLALLNVLTYCYELGVKYATIYAFSIDNFRRKPHEVQYVMDLMLEKIEGMIMEESIINAYDICVRFVGNLKLLSEPVKTAADKIMRATANNSKCVLLIAVCYTSTDEIVHAVEESSELNSNEVCNNQELEEANATGSGTVIQIENMESYSGIKLVDLEKNTYINPYPDVLIRTSGETRLSNYLLWQTTNCILYSPHALWPEIGLRHVVWAVINFQRHYSYLEKHKEYLK
B2: HRT1-linker-LDAP1 fusion protein (protein)
chain: GFLALLNVLTYCYELGVKYATIYAFSIDNFRRKPHEVQYVMDLMLEKIEGMIMEESIINAYDICVRFVGNLKLLSEPVKTAADKIMRATANNSKCVLLIAVCYTSTDEIVHAVEESSELNSNEVCNNQELEEANATGSGTVIQIENMESYSGIKLVDLEKNTYINPYPDVLIRTSGETRLSNYLLWQTTNCILYSPHALWPEIGLRHVVWAVINFQRHYSYLEKHKEYLKTGNSADGGGGSGGSGGSGGGSTQGMAEADAKLQNDTVQEDEVTTLKYLEFVQIAAVHAVVIVSSIYDFAKDNSGPLKPGVQTVEGTVKTVMSPVYEKIQDIPLELLKFADRKVDGFVQEVDRHVPVLVKQASSQAFSAAHRAPEVARSIKSELNRVGVVDTATEMTKAAYATLEPTAKDLYIRYEPVAEHYAVSAWRSLNRLPLFSEVAHIVVPTAAYWTDKYNKGVRYMEVKGFGVASYMPLVPTERIAKVFGEREEEIVLEMSPMTTSEVVN

Molecular target: T1, HRBP (1-81), amino acids 1 to 81 of the …

Protein | Enzymatic activity (prenyl chain elongation, radioactivity of [4-14C]IPP incorporated, dpm)
B1 | 837 dpm
B2 | 900 dpm
